PMC8164019 (Methods in molecular biology (Clifton, N.J.), 2020)

Biological target: the molecule itself
Test: negative-stain EM

B1: MxB after cleavage of the MBP tag by HRV-3C protease (natural protein, human, UniProt P20592 1-715, looked up)
chain: MSKAHKPWPYRRRSQFSSRKYLKKEMNSFQQQPPPFGTVPPQMMFPPNWQGAEKDAAFLAKDFNFLTLNNQPPPGNRSQPRAMGPENNLYSQYEQKVRPCIDLIDSLRALGVEQDLALPAIAVIGDQSSGKSSVLEALSGVALPRGSGIVTRCPLVLKLKKQPCEAWAGRISYRNTELELQDPGQVEKEIHKAQNVMAGNGRGISHELISLEITSPEVPDLTIIDLPGITRVAVDNQPRDIGLQIKALIKKYIQRQQTINLVVVPCNVDIATTEALSMAHEVDPEGDRTIGILTKPDLMDRGTEKSVMNVVRNLTYPLKKGYMIVKCRGQQEITNRLSLAEATKKEITFFQTHPYFRVLLEEGSATVPRLAERLTTELIMHIQKSLPLLEGQIRESHQKATEELRRCGADIPSQEADKMFFLIEKIKMFNQDIEKLVEGEEVVRENETRLYNKIREDFKNWVGILATNTQKVKNIIHEEVEKYEKQYRGKELLGFVNYKTFEIIVHQYIQQLVEPALSMLQKAMEIIQQAFINVAKKHFGEFFNLNQTVQSTIEDIKVKHTAKAENMIQLQFRMEQMVFCQDQIYSVVLKKVREEIFNPLGTPSQNMKLNSHFPSNESSVSSFTEIGIHLNAYFLETSKRLANQIPFIIQYFMLRENGDSLQKAMMQILQEKNRYSWLLQEQSETATKRRILKERIYRLTQARHALCQFSSKEIH
B1: binds.
